Molecular target: ROR2 mutant with the deletion of the d-Kringle region, flag-tagged (B4) (human, UniProt Q01974 34-943, limits assumed)
Experiment: western blot of lysate of transfected 293T cells
Text: In order to find the epitope bound by the B16 chimeric antibody, flag-tagged mutant plasmids (B1-B8) from different regions of the ROR2 protein were constructed (The Flag tag is a polypeptide fragment composed of eight hydrophilic amino acids […], which can be fused with proteins without occupying protein epitopes or structural domains, avoiding affecting the function, secretion, and transport properties of the protein. The flag tag is used to mark the target protein, if the tag is expressed, the target protein will also be expressed). The plasmid used is pcDNA3.0 plasmid. The full-length sequence of human-derived ROR2 protein includes SP region, Ig-like region, CRD region, Kringle region, Kinase region, S/T1 region, Pro region and S/T2 region. Each part and the corresponding function can refer to Debebe Z, Rathmell W K. Ror2 as a Therapeutic Target in Cancer [J]. Pharmacology & Therapeutics, 2015, 150:143-148. […]
After 48 hours of expression, the cells transfected with mutant plasmids in different regions of ROR2 were lysed. By western blot, the expression of ROR2 protein was detected with B16 chimeric antibody, Flag antibody and Santa Cruz's ROR2 antibody (Cat. No.: sc-374174).

ROR2 mutant with the deletion of the d-Kringle region, flag-tagged (B4), sequence (Q01974 other isoform, or with tags, fused parts or gaps mutant limits assumed): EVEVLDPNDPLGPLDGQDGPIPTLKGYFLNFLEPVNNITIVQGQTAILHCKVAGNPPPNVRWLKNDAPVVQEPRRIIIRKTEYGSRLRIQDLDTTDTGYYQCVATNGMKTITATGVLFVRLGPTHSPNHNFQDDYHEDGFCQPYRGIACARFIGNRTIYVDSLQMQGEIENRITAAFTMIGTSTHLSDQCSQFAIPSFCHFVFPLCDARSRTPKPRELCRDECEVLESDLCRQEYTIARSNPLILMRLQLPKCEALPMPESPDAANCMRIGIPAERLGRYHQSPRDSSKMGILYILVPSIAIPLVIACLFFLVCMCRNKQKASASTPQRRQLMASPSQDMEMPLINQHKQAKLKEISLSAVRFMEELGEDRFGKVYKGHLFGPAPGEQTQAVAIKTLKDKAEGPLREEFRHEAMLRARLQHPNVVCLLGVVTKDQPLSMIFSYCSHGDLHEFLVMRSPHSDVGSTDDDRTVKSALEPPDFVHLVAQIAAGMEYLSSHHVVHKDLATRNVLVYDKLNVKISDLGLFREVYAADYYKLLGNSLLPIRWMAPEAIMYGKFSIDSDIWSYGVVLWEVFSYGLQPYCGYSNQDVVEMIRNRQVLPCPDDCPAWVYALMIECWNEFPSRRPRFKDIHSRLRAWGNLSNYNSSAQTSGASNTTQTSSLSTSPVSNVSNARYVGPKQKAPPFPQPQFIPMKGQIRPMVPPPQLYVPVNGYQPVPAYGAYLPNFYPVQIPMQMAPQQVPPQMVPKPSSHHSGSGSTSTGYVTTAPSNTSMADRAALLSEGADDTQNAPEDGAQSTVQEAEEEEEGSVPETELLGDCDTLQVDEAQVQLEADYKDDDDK

B1: B16 chimeric antibody (antibody, human IgG1, kappa, V domains shown)
VH: QLQLQQSGPELVKPGASVRMSCKAAGYTFTSYLMHWVKQRPGQDLEWIGYINPYNDGTKYNEKFKDKATLTSDKSSSTVYMELSSLTSEDSAVYYCARSDVYYGVRFAYWGQGTLVTVSA
VL: DIVLTQSPAIMSASPGEKVTMTCSASSSVTYTYWYQQKPGSSPRLLIYDTSNLASGVPVRFSGSGSGTSYSLTISRMEAEDAATYYCQQWSSYPFTFGSGTKLEIKR
notes: also called anti-ROR2 monoclonal antibody B16 chimeric antibody; B16 antibody
binding result: no binding
